{"source": "patent US20190008947A1", "key": {"[1]": {"target": "A*11:01, P04439", "details": "modification not given"}, "[2]": {"target": "B*27:05, P13750", "assay": "ProImmune REVEAL MHC-peptide binding assay, B*27:05"}, "[3]": {"target": "T1, H-2Kb (mouse), P01901", "T1 chain": "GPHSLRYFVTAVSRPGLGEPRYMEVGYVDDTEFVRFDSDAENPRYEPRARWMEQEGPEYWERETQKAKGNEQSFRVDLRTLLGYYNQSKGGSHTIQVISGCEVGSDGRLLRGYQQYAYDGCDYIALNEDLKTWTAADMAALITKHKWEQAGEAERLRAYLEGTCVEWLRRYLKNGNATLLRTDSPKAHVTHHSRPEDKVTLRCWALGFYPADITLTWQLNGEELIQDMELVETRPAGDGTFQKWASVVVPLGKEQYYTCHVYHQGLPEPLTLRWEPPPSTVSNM", "assay": "ProImmune REVEAL MHC-peptide binding assay, H-2Kb"}, "[4]": {"target": "HLA-B*40:01", "assay": "HLA binding; serotype 1", "details": "chains peptide; modification not given"}, "[5]": {"target": "HLA-A*32:01", "assay": "HLA binding; serotype 1", "details": "chains peptide; modification not given"}, "[6]": {"target": "A*11:01, P04439", "details": "modification not given", "remark": "listed apart in the source"}, "[7]": {"target": "A*24:02, P16209", "details": "modification not given"}, "[8]": {"target": "B*07:02, P01889", "assay": "ProImmune REVEAL MHC-peptide binding assay, B*07:02"}, "[9]": {"target": "HLA-A*02:01 (human), P04439"}, "[10]": {"target": "A*24:02, P16209", "details": "modification not given", "remark": "listed apart in the source"}, "[11]": {"target": "A*11:01, P04439", "details": "modification not given", "remark": "listed apart in the source"}, "[12]": {"target": "T2, A*03:01, P04439", "T2 chain": "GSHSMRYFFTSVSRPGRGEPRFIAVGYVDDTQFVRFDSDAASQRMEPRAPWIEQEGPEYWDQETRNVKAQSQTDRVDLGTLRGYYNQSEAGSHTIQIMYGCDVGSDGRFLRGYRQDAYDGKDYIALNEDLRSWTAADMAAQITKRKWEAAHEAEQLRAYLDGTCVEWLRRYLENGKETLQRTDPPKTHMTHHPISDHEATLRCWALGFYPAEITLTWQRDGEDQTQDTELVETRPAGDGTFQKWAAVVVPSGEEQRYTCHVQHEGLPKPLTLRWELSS", "details": "modification not given"}, "[13]": {"target": "A*11:01, P04439", "details": "modification not given", "remark": "listed apart in the source"}, "[14]": {"target": "A*11:01, P04439", "details": "modification not given", "remark": "listed apart in the source"}, "[15]": {"target": "T2, A*03:01, P04439", "details": "modification not given"}, "[16]": {"target": "A*24:02, P16209", "details": "modification not given", "remark": "listed apart in the source"}, "[17]": {"target": "HLA-B*40:01", "assay": "HLA binding; serotype 4", "details": "chains peptide; modification not given"}, "[18]": {"target": "HLA-A*32:01", "assay": "HLA binding; serotype 4", "details": "chains peptide; modification not given"}, "[19]": {"target": "HLA-B*40:01", "assay": "HLA binding; serotype 3", "details": "chains peptide; modification not given"}, "[20]": {"target": "HLA-A*32:01", "assay": "HLA binding; serotype 3", "details": "chains peptide; modification not given"}, "[21]": {"target": "HLA-B*15:01", "assay": "HLA binding; serotype 3", "details": "chains peptide; modification not given"}, "[22]": {"target": "A*24:02, P16209", "details": "modification not given", "remark": "listed apart in the source"}, "[23]": {"target": "HLA-A*02:01 (human), P04439", "assay": "ProImmune REVEAL MHC-peptide binding assay, A*02:01, score against positive control"}, "[24]": {"target": "T3, HLA-A*02:01 (human), P04439", "T3 chain": "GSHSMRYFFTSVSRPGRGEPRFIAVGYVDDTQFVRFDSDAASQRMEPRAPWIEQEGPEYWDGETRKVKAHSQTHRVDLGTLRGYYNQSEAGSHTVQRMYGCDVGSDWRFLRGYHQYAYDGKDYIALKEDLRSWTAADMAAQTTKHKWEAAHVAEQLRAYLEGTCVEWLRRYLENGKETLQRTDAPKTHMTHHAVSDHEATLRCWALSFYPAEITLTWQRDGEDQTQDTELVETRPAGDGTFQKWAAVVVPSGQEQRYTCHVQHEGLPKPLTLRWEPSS", "details": "chains peptide; modification not given"}, "[25]": {"target": "A*11:01, P04439", "details": "modification not given", "remark": "listed apart in the source"}, "[26]": {"target": "A*03:01, P04439", "details": "modification not given", "remark": "listed apart in the source"}, "[27]": {"target": "A*11:01, P04439", "details": "modification not given", "remark": "listed apart in the source"}, "[28]": {"target": "A*03:01, P04439", "details": "modification not given", "remark": "listed apart in the source"}, "[29]": {"target": "A*11:01, P04439", "details": "modification not given", "remark": "listed apart in the source"}, "[30]": {"target": "T3, HLA-A*02:01 (human), P04439", "details": "chains peptide; modification not given"}}, "note": "Where “and” joins values, the source holds several entries; their conditions need not be identical. Equal values may be shown once. Read-outs that look alike come from different tables or passages of the source."}
{"binder": "VTFKNPHAK", "values": [{"measurement": "IC50", "setting": "[1]", "result": 17, "unit": "nM"}]}
{"binder": "FKLTYQNKV (modifications not checked)", "values": [{"measurement": "REVEAL ® score at 0 h", "setting": "[2]", "result": 53.7}]}
{"binder": "LMYFHRRDL (modifications not checked)", "values": [{"measurement": "REVEAL ® score at 0 h", "setting": "[3]", "result": 54.9}]}
{"binder": "KQWFLDLPL", "note": "[…, serotype 1, listing 1 of 2 here]", "values": [{"measurement": "IC50", "setting": "[4]", "result": 398, "unit": "nM"}, {"measurement": "IC50", "setting": "[5]", "result": 8, "unit": "nM"}]}
{"binder": "CHATFTMRL (modifications not checked)", "values": [{"measurement": "REVEAL ® score at 0 h", "setting": "[3]", "result": 60.3}]}
{"binder": "VTFKVPHAK", "values": [{"measurement": "IC50", "setting": "[6]", "result": 14, "unit": "nM"}]}
{"binder": "QQRVFKEKV (modifications not checked)", "values": [{"measurement": "REVEAL ® score at 0 h", "setting": "[3]", "result": 63.4}]}
{"binder": "SYSMCTGKF", "values": [{"measurement": "IC50", "setting": "[7]", "result": 115, "unit": "nM"}]}
{"binder": "SRNSTHEMY (modifications not checked)", "values": [{"measurement": "REVEAL ® score at 0 h", "setting": "[8]", "result": 52}]}
{"binder": "TALTGATEI (modifications not checked)", "note": "[… (SEQ ID NO: 344)]", "values": [{"measurement": "REVEAL Score", "setting": "[9]", "result": 0.9}]}
{"binder": "LSRNSTHEM (modifications not checked)", "values": [{"measurement": "REVEAL ® score at 0 h", "setting": "[3]", "result": 51.1}, {"measurement": "REVEAL ® score at 0 h", "setting": "[8]", "result": 124}]}
{"binder": "PLSRNSTHE (modifications not checked)", "values": [{"measurement": "REVEAL ® score at 0 h", "setting": "[8]", "result": 65}]}
{"binder": "SYAMCLNTF", "values": [{"measurement": "IC50", "setting": "[10]", "result": 540, "unit": "nM"}]}
{"binder": "VTFKTAHAK", "values": [{"measurement": "IC50", "setting": "[11]", "result": 16, "unit": "nM"}]}
{"binder": "HATFTMRLL (modifications not checked)", "values": [{"measurement": "REVEAL ® score at 0 h", "setting": "[3]", "result": 69.5}]}
{"binder": "YGLNTFTNM (modifications not checked)", "values": [{"measurement": "REVEAL ® score at 0 h", "setting": "[3]", "result": 75.4}]}
{"binder": "QLKLNWFKK", "values": [{"measurement": "IC50", "setting": "[12]", "result": 151, "unit": "nM"}, {"measurement": "IC50", "setting": "[13]", "result": 778, "unit": "nM"}]}
{"binder": "LMCHATFTM (modifications not checked)", "values": [{"measurement": "REVEAL ® score at 0 h", "setting": "[3]", "result": 59}, {"measurement": "REVEAL ® score at 0 h", "setting": "[2]", "result": 98.2}]}
{"binder": "ALKINWYRK", "values": [{"measurement": "IC50", "setting": "[14]", "result": 376, "unit": "nM"}, {"measurement": "IC50", "setting": "[15]", "result": 193, "unit": "nM"}]}
{"binder": "SYVMCTGSF", "values": [{"measurement": "IC50", "setting": "[16]", "result": 104, "unit": "nM"}]}
{"binder": "KQWFLDLPL", "note": "[…, serotype 4, listing 2 of 2 here]", "values": [{"measurement": "IC50", "setting": "[17]", "result": 398, "unit": "nM"}, {"measurement": "IC50", "setting": "[18]", "result": 8, "unit": "nM"}]}
{"binder": "RQWFFDLPL", "values": [{"measurement": "IC50", "setting": "[19]", "result": 51, "unit": "nM"}, {"measurement": "IC50", "setting": "[20]", "result": 7, "unit": "nM"}, {"measurement": "IC50", "setting": "[21]", "result": 80, "unit": "nM"}]}
{"binder": "ATFTMRLLS (modifications not checked)", "values": [{"measurement": "REVEAL ® score at 0 h", "setting": "[3]", "result": 55.6}]}
{"binder": "RRGDLPVWL (modifications not checked)", "values": [{"measurement": "REVEAL ® score at 0 h", "setting": "[2]", "result": 145}]}
{"binder": "SYTMCSGKF", "values": [{"measurement": "IC50", "setting": "[22]", "result": 222, "unit": "nM"}]}
{"binder": "FKPGTSGSP (modifications not checked)", "values": [{"measurement": "REVEAL ® score at 0 h", "setting": "[3]", "result": 45.7}]}
{"binder": "RQWFFDLPL", "note": "[… (SEQ ID NO: 343)]", "values": [{"measurement": "REVEAL Score", "setting": "[23]", "result": 80.5}, {"measurement": "IC50", "setting": "[24]", "result": "39 nM and 12 nM"}]}
{"binder": "ALKLSWFKK", "values": [{"measurement": "IC50", "setting": "[25]", "result": 59, "unit": "nM"}, {"measurement": "IC50", "setting": "[26]", "result": 42, "unit": "nM"}]}
{"binder": "VTFKNAHAK", "values": [{"measurement": "IC50", "setting": "[27]", "result": 17, "unit": "nM"}]}
{"binder": "ARGYISTRV (modifications not checked)", "values": [{"measurement": "REVEAL ® score at 0 h", "setting": "[2]", "result": 125}]}
{"binder": "LAPTRVVAA (modifications not checked)", "values": [{"measurement": "REVEAL ® score at 0 h", "setting": "[3]", "result": 102}]}
{"binder": "ALTLHWFRK", "values": [{"measurement": "IC50", "setting": "[28]", "result": 34, "unit": "nM"}, {"measurement": "IC50", "setting": "[29]", "result": 47, "unit": "nM"}]}
{"binder": "KQWFLDLPL", "note": "[… (SEQ ID NO: 341)]", "values": [{"measurement": "REVEAL Score", "setting": "[23]", "result": 86}, {"measurement": "IC50", "setting": "[30]", "result": 11, "unit": "nM"}]}
